Laboratory results taken from publication PMC6295060.

Assays:
DMAP1 [1] = target: DMAP1 (UniProt Q9NPF5); test: co-IP; conditions: reference: WT Bub3, mitotic arrest; sites S211
DMAP1 [2] = target: DMAP1 (UniProt Q9NPF5); test: co-IP with anti-Flag antibody; conditions: reference: WT Flag-rBub3; sites S211
DMAP1 [3] = target: DMAP1 (UniProt Q9NPF5); test: pull-down of His-Bub3 and GST-DMAP1; conditions: sites S211

Substance: Bub3 (from UniProt O43684) Bub3 S211A, mitotic arrest
- binding against the reference (DMAP1 [1]): weaker

Substance: Bub3 (from UniProt O43684) Flag-rBub3 S211A
- binding against the reference (DMAP1 [2]): lost

Substance: Bub3 (from UniProt O43684) His-Bub3 S211A
- binding against the reference (DMAP1 [3]; reference: WT His-Bub3): lost

Substance: Bub3 (from UniProt O43684) WT His-Bub3 with purified p38
- binding against the reference (DMAP1 [3]; reference: WT His-Bub3 without p38): gained
